Experimental data: patent US20220064275A1 (SCHOLAR ROCK, published 2022)

B1: Ab16 (antibody, V domains shown)
VH: EVQLLESGGGLVQPGGSLRLSCAASGFTFSNYAMSWVRQAPGKGLEWVSAISGSGFTTYYADSVKGRFTISRDNSKNTLYLQMNSLRAEDTAVYYCARVSSGHWDFDYWGQGTLVTVSS
VL: DIQLTQSPSSLSASVGDRVTITCRASQSISSYLNWYQQKPGKAPKLLIYAASNLQSGVPSRFSGSGSGTDFTLTISSLQPEDFATYYCQQTYTVPLTFGGGTKVEIK
B2: Ab36 (antibody, V domains shown)
VH: EVQLLESGGGLVQPGGSLRLSCAASGFTFRNYAMSWVRQAPGKGLEWVSSISGSGGATYYADSVKGRFTISRDNSKNTLYLQMNSLRAEDTAVYYCARVSSGHWDLDYWGQGTLVTVSS
VL: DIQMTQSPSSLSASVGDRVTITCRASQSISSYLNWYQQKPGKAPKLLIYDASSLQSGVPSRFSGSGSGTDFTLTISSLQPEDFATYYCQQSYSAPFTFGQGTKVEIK
B3: Ab1 (antibody, V domains shown)
VH: EVQLLESGGGLVQPGGSLRLSCAASGFTFRNYAMSWVRQAPGKGLEWVSSISGSGGATYYADSVKGRFTISRDNSKNTLYLQMNSLRAEDTAVYYCARVSSGHWDFDYWGQGTLVTVSS
VL: DIQLTQSPSSLSASVGDRVTITCQASQDISNFLNWYQQKPGKAPKLLIYDASNLETGVPSRFSGSGSGTDFTFTISSLQPEDIATYYCQQVFNPPLTFGGGTKVEIK
B4: Ab13 (antibody, V domains shown)
VH: EVQLLESGGGLVQPGGSLRLSCAASGFTFADYAMTWVRQAPGKGLEWVSAISSFASAIYYADSVKGRFTISRDNSKNTLYLQMNSLRAEDTAVYYCARVSSGHWDFDYWGQGTLVTVSS
VL: DIQMTQSPSSLSASVGDRVTITCRASQSISSYLNWYQQKPGKAPKLLIYAASSLQSGVPSRFSGSGSGTDFTLTISSLQPEDFATYYCQQVYDPPLTFGGGTKVEIK
B5: Ab7 (antibody, V domains shown)
VH: EVQLLESGGGLVQPGGSLRLSCAASGFTFADYAMTWVRQAPGKGLEWVSAISGTGAHTYYADSVKGRFTISRDNSKNTLYLQMNSLRAEDTAVYYCARVSSGHWDFDYWGQGTLVTVSS
VL: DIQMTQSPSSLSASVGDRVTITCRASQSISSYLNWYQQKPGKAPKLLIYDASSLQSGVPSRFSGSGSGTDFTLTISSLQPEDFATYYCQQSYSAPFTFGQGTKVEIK
B6: Ab8 (antibody, V domains shown)
VH: QVQLVESGGGVVQPGRSLRLSCAASGFTFSDYAMVWVRQAPGKGLEWVSAISGSGFTTYYADSVKGRFTISRDNSKNTLYLQMNSLRAEDTAVYYCARVSSGHWDFDYWGQGTLVTVSS
VL: not shown
B7: Ab10 (antibody, V domains shown)
VH: EVQLLESGGGLVQPGGSLRLSCAASGFTFRNYAMSWVRQAPGKGLEWVSSISGSGGATYYADSVKGRFTISRDNSKNTLYLQMNSLRAEDTAVYYCARVSSGHWDFDYWGQGTLVTVSS
VL: not shown
B8: Ab9 (antibody, V domains shown)
VH: QVQLVESGGGVVQPGGSLRLSCAASGFTFSSFAMTWVRQAPGKGLEWVSAISGSGAATYFADSVKGRFTISRDNSKNTLYLQMNSLRAEDTAVYYCARVSSGHWDFDYWGQGTLVTVSS
VL: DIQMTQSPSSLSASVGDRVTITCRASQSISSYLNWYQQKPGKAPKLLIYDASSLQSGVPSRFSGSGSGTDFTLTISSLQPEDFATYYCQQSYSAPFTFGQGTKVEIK
B9: Ab14 (antibody, V domains shown)
VH: EVQLLESGGGLVQPGGSLRLSCAASGFTFSAYAMTWVRQAPGKGLEWVSAISGTGGSTYYADSVKGRFTISRDNSKNTLYLQMNSLRAEDTAVYYCARVSSGHWDFDYWGQGTLVTVSS
VL: DIQMTQSPSSLSASVGDRVTITCRASQSISSYLNWYQQKPGKAPKLLIYAASSLQSGVPSRFSGSGSGTDFTLTISSLQPEDFATYYCQQVYDPPLTFGGGTKVEIK
B10: Ab17 (antibody, V domains shown)
VH: EVQLLESGGGVVQPGGSLRLSCAASGFTFSSFAMTWVRQAPGKGLEWVSAISGSGAATYFADSVKGRFTISRDNSKNTLYLQMNSLRAEDTAVYYCARVSSGHWDFDYWGQGTLVTVSS
VL: DIQLTQSPSSLSASVGDRVTITCRASQSISSYLNWYQQKPGKAPKLLIYAASNLQSGVPSRFSGSGSGTDFTLTISSLQPEDFATYYCQQTYTVPLTFGGGTKVEIK
B11: Ab18 (antibody, V domains shown)
VH: QVQLVESGGGVVQPGRSLRLSCAASGFTFSDYAMVWVRQAPGKGLEWVSAISGSGAATYFADSVKGRFTISRDNSKNTLYLQMNSLRAEDTAVYYCATVSSGHWDFDYWGQGTLVTVSS
VL: DIQLTQSPSSLSASVGDRVTITCRASQSISSYLNWYQQKPGKAPKLLIYAASNLQSGVPSRFSGSGSGTDFTLTISSLQPEDFATYYCQQTYTVPLTFGGGTKVEIK
B12: Ab15 (antibody, V domains shown)
VH: EVQLVESGGGVVQPGRSLRLSCAASGFTFSDYAMVWVRQAPGKGLEWVSAISGSGFTTYYADSVKGRFTISRDNSKNTLYLQMNSLRAEDTAVYYCARVSSGHWDFDYWGQGTLVTVSS
VL: DIQLTQSPSSLSASVGDRVTITCRASQSISSYLNWYQQKPGKAPKLLIYAASNLQSGVPSRFSGSGSGTDFTLTISSLQPEDFATYYCQQTYTVPLTFGGGTKVEIK
B13: Ab5 (antibody, V domains shown)
VH: EVQLVESGGGLVQPGGSLRLSCAASGFTFSSFSMDWVRQAPGKGLEWVSYISPDASTIYYADSVKGRFTISRDNAKNSLYLQMNSLRAEDTAVYYCARGVLDYGDMLDPWGQGTLVTVSS
VL: DIQMTQSPSSLSASVGDRVTITCQASQDITNYLNWYQQKPGKAPKLLIYDASNLETGVPSRFSGSGSGTDFTFTISSLQPEDIATYYCQQADNHPPWTFGGGTKVEIK
B14: Ab21 (antibody, V domains shown)
VH: EVQLVESGGGLVQPGGSLRLSCAASGFTFSSFSMDWVRQAPGKGLEWVSYISPDASTIYYADSVKGRFTISRDNAKNSLYLQMNSLRAEDTAVYYCARGVLDYGDMLDPWGQGTLVTVSS
VL: DIQMTQSPSSLSASVGDRVTITCQASQDITNYLNWYQQKPGKAPKLLIYDASNLETGVPSRFSGSGSGTDFTFTISSLQPEDIATYYCQQADNHPPWTFGGGTKVEIK
B15: Ab27 (antibody, V domains shown)
VH: EVQLVESGGGLVQPGGSLRLSCAASGFTFSFYAMNWVRQAPGKGLEWVSYISPDASTIYYADSVKGRFTISRDNAKNSLYLQMNSLRAEDTAVYYCARGVLDYGDMLDPWGQGTLVTVSS
VL: DIQMTQSPSSLSASVGDRVTITCQASQDITNYLNWYQQKPGKAPKLLIYDASNLETGVPSRFSGSGSGTDFTFTISSLQPEDIATYYCQQADNHPPWTFGGGTKVEIK
B16: Ab23 (antibody, V domains shown)
VH: EVQLVESGGGLVQPGGSLRLSCAASGFTFSSFSMNWVRQAPGKGLEWVSYISPSADTIYYADSVKGRFTISRDNAKNTLYLQMNSLRAEDTAVYYCARGVLDYGDMLDPWGQGTLVTVSS
VL: DIQMTQSPSSLSASVGDRVTITCQASQDITNYLNWYQQKPGKAPKLLIYDASNLETGVPSRFSGSGSGTDFTFTISSLQPEDIATYYCQQADNHPPWTFGGGTKVEIK
B17: Ab28 (antibody, V domains shown)
VH: EVQLVESGGGLVQPGGSLRLSCAASGFTFSSFSMDWVRQAPGKGLEWVSYISPDASTIYYADSVKGRFTISRDNAKNSLYLQMNSLRAEDTAVYYCVRGVLDYGDMLDPWGQGTLVTVSS
VL: DIQMTQSPSSLSASVGDRVTITCQASQDITNYLNWYQQKPGKAPKLLIYDASNLETGVPSRFSGSGSGTDFTFTISSLQPEDIATYYCQQADNHPPWTFGGGTKVEIK

How the values were obtained:
[1] = target: T1, human LTBP1-proTGFβ1 complex (human, UniProt Q14766 873-1507); test: BLI (Octet)
T1 construct: range 873-1507; biotinylated in Octet and MSD-SET; also called hLTBP1-proTGFβ1; hLTBP1
T1 sequence (Q14766 873-1507 limits assumed, chain 1 of 2): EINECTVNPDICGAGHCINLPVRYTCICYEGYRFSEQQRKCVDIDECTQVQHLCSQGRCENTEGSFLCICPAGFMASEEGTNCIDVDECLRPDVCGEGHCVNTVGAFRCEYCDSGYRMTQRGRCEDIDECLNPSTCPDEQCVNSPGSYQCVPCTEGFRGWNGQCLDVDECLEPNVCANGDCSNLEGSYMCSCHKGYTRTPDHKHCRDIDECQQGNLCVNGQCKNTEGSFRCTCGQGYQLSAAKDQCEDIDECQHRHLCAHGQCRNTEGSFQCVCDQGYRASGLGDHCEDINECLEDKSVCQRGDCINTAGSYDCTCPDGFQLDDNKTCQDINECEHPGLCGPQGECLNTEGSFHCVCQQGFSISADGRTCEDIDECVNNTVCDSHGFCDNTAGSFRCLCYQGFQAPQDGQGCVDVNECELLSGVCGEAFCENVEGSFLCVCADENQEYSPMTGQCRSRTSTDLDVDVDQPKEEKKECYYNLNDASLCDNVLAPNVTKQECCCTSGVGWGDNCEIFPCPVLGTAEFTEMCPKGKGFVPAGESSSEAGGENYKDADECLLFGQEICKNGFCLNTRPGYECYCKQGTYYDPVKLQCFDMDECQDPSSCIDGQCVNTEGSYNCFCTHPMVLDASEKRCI
T1 sequence (chain, as listed by the source limits assumed, chain 2 of 2): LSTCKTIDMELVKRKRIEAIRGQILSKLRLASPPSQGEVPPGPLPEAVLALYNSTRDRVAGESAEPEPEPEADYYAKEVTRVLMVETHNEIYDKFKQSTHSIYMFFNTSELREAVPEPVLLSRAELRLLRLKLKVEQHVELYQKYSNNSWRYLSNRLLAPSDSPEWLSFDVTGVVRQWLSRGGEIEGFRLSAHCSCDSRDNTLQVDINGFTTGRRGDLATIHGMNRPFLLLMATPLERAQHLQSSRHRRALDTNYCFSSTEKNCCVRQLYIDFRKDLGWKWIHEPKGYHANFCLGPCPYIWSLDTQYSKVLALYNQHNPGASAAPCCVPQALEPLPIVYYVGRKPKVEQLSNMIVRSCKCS

[2] = target: T2, human LTBP3-proTGFβ1 complex (human, UniProt Q9NS15 866-1039); test: BLI (Octet)
T2 construct: range 866-1039; also called hLTBP3-proTGFβ1; hLTBP3

[3] = target: T3, human GARP-proTGFβ1 complex (human, UniProt Q14392 20-627; P01137 30-390); test: BLI (Octet)
T3 construct: also called hGARP-proTGFβ1; hGARP

[4] = target: T4, human LRRC33-proTGFβ1 complex (human, UniProt Q86YC3 19-650; P01137 30-390); test: BLI (Octet)
T4 construct: also called hLRRC33-proTGFβ1; hLRRC33
T4 sequence (Q86YC3 other isoform, or with tags, fused parts or gaps limits assumed, chain 1 of 2): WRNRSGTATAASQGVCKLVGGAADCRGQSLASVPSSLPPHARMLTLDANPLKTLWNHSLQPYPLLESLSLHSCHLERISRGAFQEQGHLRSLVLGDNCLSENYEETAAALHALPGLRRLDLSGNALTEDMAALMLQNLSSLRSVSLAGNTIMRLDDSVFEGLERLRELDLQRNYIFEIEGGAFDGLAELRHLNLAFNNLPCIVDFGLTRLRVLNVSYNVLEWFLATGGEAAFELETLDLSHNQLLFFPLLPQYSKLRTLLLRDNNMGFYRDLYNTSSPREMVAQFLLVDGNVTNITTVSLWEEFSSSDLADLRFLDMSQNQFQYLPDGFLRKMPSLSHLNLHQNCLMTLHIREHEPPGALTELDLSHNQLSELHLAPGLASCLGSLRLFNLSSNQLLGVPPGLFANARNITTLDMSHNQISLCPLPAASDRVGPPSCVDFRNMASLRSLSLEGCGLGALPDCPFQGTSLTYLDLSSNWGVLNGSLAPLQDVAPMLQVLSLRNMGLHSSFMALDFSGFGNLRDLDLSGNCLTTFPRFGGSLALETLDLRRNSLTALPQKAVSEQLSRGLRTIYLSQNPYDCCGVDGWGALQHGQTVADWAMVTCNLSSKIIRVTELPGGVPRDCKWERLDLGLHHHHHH
T4 sequence (P01137 30-390 limits assumed, chain 2 of 2): as the sequence (chain, as listed by the source limits assumed, chain 2 of 2) above

[5] = target: hLTBP1-proTGFβ1 complex made by transfected cells (cell-based potency assay) (human, UniProt Q14766 347-1721; P01137 30-390); test: cell-based or functional assay
[6] = target: hLTBP3-proTGFβ1 complex made by transfected cells (cell-based potency assay) (human, UniProt Q9NS15 44-1303; P01137 30-390); test: cell-based or functional assay
Chain of hLTBP3-proTGFβ1 complex made by transfected cells (cell-based potency assay) (Q9NS15 44-1303, chain 1 of 2): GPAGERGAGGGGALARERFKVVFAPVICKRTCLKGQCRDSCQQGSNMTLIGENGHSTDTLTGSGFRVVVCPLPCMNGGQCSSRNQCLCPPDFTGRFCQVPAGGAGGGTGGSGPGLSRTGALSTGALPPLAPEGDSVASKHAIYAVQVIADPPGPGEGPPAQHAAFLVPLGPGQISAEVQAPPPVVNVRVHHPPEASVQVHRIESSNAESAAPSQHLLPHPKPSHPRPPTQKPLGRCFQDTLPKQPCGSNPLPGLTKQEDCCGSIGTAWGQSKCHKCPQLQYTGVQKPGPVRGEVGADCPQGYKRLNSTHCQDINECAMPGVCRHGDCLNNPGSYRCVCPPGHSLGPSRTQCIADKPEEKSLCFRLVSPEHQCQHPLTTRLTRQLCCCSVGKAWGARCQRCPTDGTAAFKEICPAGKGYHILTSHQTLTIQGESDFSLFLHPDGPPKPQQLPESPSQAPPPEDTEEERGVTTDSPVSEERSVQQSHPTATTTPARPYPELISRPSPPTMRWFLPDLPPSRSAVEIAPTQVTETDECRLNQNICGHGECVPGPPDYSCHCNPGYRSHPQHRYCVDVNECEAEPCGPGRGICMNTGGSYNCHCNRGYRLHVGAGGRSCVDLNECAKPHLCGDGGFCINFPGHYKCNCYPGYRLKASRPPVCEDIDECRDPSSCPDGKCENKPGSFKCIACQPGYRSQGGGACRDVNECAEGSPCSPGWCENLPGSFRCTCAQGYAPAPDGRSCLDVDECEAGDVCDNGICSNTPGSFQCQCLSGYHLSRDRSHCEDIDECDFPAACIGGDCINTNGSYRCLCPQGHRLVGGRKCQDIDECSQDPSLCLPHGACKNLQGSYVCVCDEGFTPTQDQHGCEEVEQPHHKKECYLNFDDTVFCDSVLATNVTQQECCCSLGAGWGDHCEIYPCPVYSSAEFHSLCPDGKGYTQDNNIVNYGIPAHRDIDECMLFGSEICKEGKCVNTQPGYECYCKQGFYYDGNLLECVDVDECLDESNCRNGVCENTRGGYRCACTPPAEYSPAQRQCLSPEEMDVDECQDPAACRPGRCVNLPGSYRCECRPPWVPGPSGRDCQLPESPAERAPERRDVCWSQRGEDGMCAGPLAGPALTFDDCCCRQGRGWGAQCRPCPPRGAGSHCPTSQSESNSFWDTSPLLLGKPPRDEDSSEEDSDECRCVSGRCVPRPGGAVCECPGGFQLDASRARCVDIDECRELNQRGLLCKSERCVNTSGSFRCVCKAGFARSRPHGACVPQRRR
Chain of hLTBP3-proTGFβ1 complex made by transfected cells (cell-based potency assay) (P01137 30-390, chain 2 of 2): as the sequence (chain, as listed by the source limits assumed, chain 2 of 2) above

[7] = target: hGARP-proTGFβ1 complex on cells (human, UniProt Q14392 20-662; P01137 30-390); test: cell-based or functional assay
Chain of hGARP-proTGFβ1 complex on cells (Q14392 20-662 limits assumed, chain 1 of 2): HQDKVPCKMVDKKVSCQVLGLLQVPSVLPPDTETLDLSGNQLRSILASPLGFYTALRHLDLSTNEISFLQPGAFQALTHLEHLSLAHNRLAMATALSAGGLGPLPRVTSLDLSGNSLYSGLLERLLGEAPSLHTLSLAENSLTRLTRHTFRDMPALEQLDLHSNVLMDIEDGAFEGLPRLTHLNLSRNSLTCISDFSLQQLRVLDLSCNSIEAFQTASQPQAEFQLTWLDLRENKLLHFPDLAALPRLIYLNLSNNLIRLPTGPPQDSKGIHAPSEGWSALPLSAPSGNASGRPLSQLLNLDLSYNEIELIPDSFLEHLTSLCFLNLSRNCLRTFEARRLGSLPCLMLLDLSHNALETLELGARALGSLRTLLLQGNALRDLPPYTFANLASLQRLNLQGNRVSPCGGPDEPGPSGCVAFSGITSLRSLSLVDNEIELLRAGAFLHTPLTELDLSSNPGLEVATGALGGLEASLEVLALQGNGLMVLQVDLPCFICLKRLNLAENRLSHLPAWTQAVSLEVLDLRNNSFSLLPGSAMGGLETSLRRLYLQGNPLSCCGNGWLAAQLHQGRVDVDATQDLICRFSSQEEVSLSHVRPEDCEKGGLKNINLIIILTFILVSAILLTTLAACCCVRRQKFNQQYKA
Chain of hGARP-proTGFβ1 complex on cells (P01137 30-390 limits assumed, chain 2 of 2): as the sequence (chain, as listed by the source limits assumed, chain 2 of 2) above

[8] = target: hLRRC33-proTGFβ1 complex on cells (human, UniProt Q86YC3 19-692; P01137 30-390); test: cell-based or functional assay

Binder | Kd [1] [pM] | Kd [2] [pM] | Kd [3] [pM] | Kd [4] [pM] | IC50, reporter cell assay of TGFβ1 activation [5] [pM] | IC50, reporter cell assay of TGFβ1 activation [6] [pM] | IC50, reporter cell assay of TGFβ1 activation [7] [pM] | IC50, reporter cell assay of TGFβ1 activation [8] [pM]
B1 | 181 | 132 | 4160 | 631 |  |  |  | 
B2 | 353 | 415 | 12800 | 1420 |  |  |  | 
B3 |  |  |  |  | 14500 | 2710 | 3720 | 5370
B4 | 276 | 249 | 10000 | 1400 |  |  |  | 
B5 | 487 | 417 | 18000 | 10300 |  |  |  | 
B6 | 329 | 302 | 15400 | 10000 |  |  |  | 
B7 | 262 | 319 | 10200 | 1060 |  |  |  | 
B8 | 348 | 284 | 15500 | 1300 |  |  |  | 
B9 | 336 | 346 | 10500 | 1340 |  |  |  | 
B10 | 174 | 208 | 8620 | 658 |  |  |  | 
B11 | 312 | 257 | 11500 | 1020 |  |  |  | 
B12 | 150 | 168 | 7010 | 702 |  |  |  | 
B13 |  |  |  |  | 1290 | 1000 | 140 | 616
B14 | 225 | 268 | 833 | 455 | 1610 | 765 | 400 | 596
B15 | 178 | 238 | 424 | 299 |  |  |  | 
B16 | 417 | 468 | 1340 | 455 | 835 | 879 | 264 | 579
B17 | 340 | 316 | 797 | 409 |  |  |  | 
